Among the data in publication PMC11217727 are percent of FGFR3 present as dimer values, retold here.

Experiment [1] deals with FGFR3 S249C stably expressed in FaDu head and neck cancer cells (human) (UniProt P22607). Kind of experiment: nonreducing SDS-PAGE with Western blot.
For experiment [2], the target named is FGFR3 S249C stably expressed in BaF3 cells (human) (UniProt P22607). Put plainly: nonreducing SDS-PAGE with Western blot. A general note: Immunoblotting shows a protein as a band on a membrane.

Substance “FGFR3 S249C stably expressed in FaDu head and neck cancer cells (from UniProt P22607 23-806) (receptor)” came in with a percent of FGFR3 present as dimer in experiment [1] of 70%. Regarding “FGFR3 S249C stably expressed in BaF3 cells (from UniProt P22607 23-806) (receptor)”, in experiment [2], the percent of FGFR3 present as dimer stood at 6%.
